Measurements published in patent publication US8318489B2, “Prostacyclin directed differentiation of cardiomyocytes from human embryonic stem cells” (priority 2005, dated 2012).

System: hES cells
Assay: Embryoid body differentiation of hES cells, visual scoring of beating EBs
Type: cell-based, human
Settings: growth factor 10 ng/ml added to END2-CM, day 12, compared to END2-CM alone
Description: This procedure describes the formation of embryoid bodies (EB) from collagenase-derived hES cell cultures. After formation the EBs were then exposed to END2 conditioned medium (CM).
Enzymatically passaged hES cells grown on feeder cells were washed once with PBS^+ and treated with Collagenase IV (1 mg/ml) for 3-4 min at 37° C. The Collagenase IV solution was replaced by DMEM and the cells were mechanically dissociated with a pipette tip. Cells were then harvested using a cell scraper and the cell suspension was transferred to a 50 ml tube (Falcon). Cell clumps were collected by gravity and the supernatant was aspirated. Cells were resuspended in fresh DMEM medium aiming to uniformly disperse the cell clumps in the suspension. An equal volume of the cell suspension was then transferred to ultra low attachment plates (Costar). […]
In suspension culture, EBs are formed in ultra low attachment plates in SF medium over night. […] Usually, cells were cultured over a period of 12-13 days before the visual analysis of the proportion of beating EBs under a microscope was performed followed by cell collection for additional readouts. Multiple beating areas on single EBs were not counted separately. Values are expressed as a percentage of contracting EBs compared to […] in a single well of a 6-well tray. […] An average value per well was calculated and presented.

B1: Bmp6: recombinant human Bmp6 (R&D) (protein, UniProt P22004 375-513, looked up)
Bone morphogenetic protein 6: SASSRRRQQSRNRSTQSQDVARVSSASDYNSSELKTACRKHELYVSFQDLGWQDWIIAPKGYAANYCDGECSFPLNAHMNATNHAIVQTLVHLMNPEYVPKPCCAPTKLNAISVLYFDDNSNVILKKYRNMVVRACGCH
CM induction activity (number of beating areas): enhance CM induction activity
